This note sets out measurements from PMC11408855, “The structure of the SufS–SufE complex reveals interactions driving protected persulfide transfer in iron-sulfur cluster biogenesis” (The Journal of Biological Chemistry, 2024).

Substitutions are numbered along the chain they refer to. In names and notes the source's numbering stands.

Common to all, as to experiment: fluorescence polarisation; 100 nM BODIPY-FL-labeled EcSufE titrated with EcSufS; 50 mM Mops pH 8.0, 150 mM NaCl, 0.1 mg/ml bovine serum albumin, 25 °C, 30 min; absence of cysteine; apparent KD
Conditions in all cases: both partners purified

Assay [1] addresses T1, F350A EcSufS, C-terminal his-tagged (Escherichia coli, UniProt P77444 1-406, F350A, PLP (pyridoxal 5'-phosphate) cofactor).
T1 construct: EcSufS of Escherichia coli, UniProt P77444, with F350A; also called F350A SufS; source: E. coli BL21(DE3)Δsuf, pET44, autoinduction, purified (Ni2+ HisTrap HP); not shown: His tag, C-terminal, kept
T1 sequence: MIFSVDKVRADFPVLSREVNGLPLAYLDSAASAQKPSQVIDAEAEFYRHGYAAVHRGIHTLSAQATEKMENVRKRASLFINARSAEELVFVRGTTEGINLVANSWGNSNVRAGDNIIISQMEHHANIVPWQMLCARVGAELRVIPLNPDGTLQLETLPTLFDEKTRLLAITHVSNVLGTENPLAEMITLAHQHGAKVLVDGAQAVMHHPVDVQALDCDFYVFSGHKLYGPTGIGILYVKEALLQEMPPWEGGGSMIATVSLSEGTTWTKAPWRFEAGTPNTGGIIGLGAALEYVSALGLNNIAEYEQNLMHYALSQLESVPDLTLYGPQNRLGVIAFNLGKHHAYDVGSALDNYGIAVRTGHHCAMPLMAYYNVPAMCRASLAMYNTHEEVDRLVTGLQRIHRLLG

Assay [2] has as its target T2, N353A EcSufS, C-terminal his-tagged (Escherichia coli, UniProt P77444 1-406, N353A, PLP (pyridoxal 5'-phosphate) cofactor).
T2 construct: EcSufS of Escherichia coli, UniProt P77444, with N353A; also called N353A SufS; source: E. coli BL21(DE3)Δsuf, pET44, autoinduction, purified (Ni2+ HisTrap HP); not shown: His tag, C-terminal, kept
T2 sequence: T1 sequence with A350F, N353A

In assay [3] the target is T3, S349A EcSufS, C-terminal his-tagged (Escherichia coli, UniProt P77444 1-406, S349A, PLP (pyridoxal 5'-phosphate) cofactor).
T3 construct: EcSufS of Escherichia coli, UniProt P77444, with S349A; also called S349A SufS; source: E. coli BL21(DE3)Δsuf, pET44, autoinduction, purified (Ni2+ HisTrap HP); not shown: His tag, C-terminal, kept
T3 sequence: T1 sequence with S349A, A350F

Assay [4] addresses T4, D346A EcSufS, C-terminal his-tagged (Escherichia coli, UniProt P77444 1-406, D346A, PLP (pyridoxal 5'-phosphate) cofactor).
T4 construct: EcSufS of Escherichia coli, UniProt P77444, with D346A; also called D346A SufS; source: E. coli BL21(DE3)Δsuf, pET44, autoinduction, purified (Ni2+ HisTrap HP); not shown: His tag, C-terminal, kept
T4 sequence: T1 sequence with D346A, A350F

B1: BODIPY-FL-labeled C51A/E107C EcSufE (natural protein, Escherichia coli)
chain: MALLPDKEKLLRNFLRCANWEEKYLYIIELGQRLPELRDEDRSPQNSIQGAQSQVWIVMRQNAQGIIELQGDSDAAIVKGLIAVVFILYDQMTPQDIVNFDVRPWFCKMALTQHLTPSRSQGLEAMIRAIRAKAAALS
modifications: BODIPY-FL maleimide label (labeling efficiency 60 to 80%)
notes: EcSufE, transpersulfurase SufE of Escherichia coli, UniProt P76194, with C51A and E107C; also called "WT" EcSufE (double mutant background); C51A/E107C EcSufE control
Consider B1, for which the Kd in assay [1] was over 40000 nM; in assay [2], 60 nM; in assay [3] it was 2200 nM; in assay [4] it was over 40000 nM.
